Results on 2 molecules are retold here after publication doi:10.1101/2020.07.21.215244 (bioRxiv, 2020).

Assay [1] concerns the target vacant (non-translating) 70S ribosomes. As to the kind of experiment: co-sedimentation.
The target in assay [2] is T1, AscA (YecA), unfused full-length (E. coli, UniProt P0AD05 1-221).
T1 sequence (looked up): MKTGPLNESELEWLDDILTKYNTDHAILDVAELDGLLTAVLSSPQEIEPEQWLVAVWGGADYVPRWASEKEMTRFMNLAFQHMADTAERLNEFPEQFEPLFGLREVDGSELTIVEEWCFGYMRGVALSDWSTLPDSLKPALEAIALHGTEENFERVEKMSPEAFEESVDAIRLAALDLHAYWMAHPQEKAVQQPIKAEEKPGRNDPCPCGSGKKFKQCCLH
As to the kind of experiment: MST.

B1: AscA (YecA), unfused full-length (natural protein)
chain: T1 sequence (looked up)
A word on the stoichiometry N: it is the number of molecules, sites or subunits per partner or assembly. B1: the stoichiometry N in assay [1] was determined as 1.

B2: SecB, fluorescently labelled (NT-647) (natural protein, E. coli, UniProt P0AG86 1-155, looked up)
chain: MSEQNNTEMTFQIQRIYTKDISFEAPNAPHVFQKDWQPEVKLDLDTASSQLADDVYEVVLRVTVTASLGEETAFLCEVQQGGIFSIAGIEGTQMAHCLGAYCPNILFPYARECITSMVSRGTFPQLNLAPVNFDALFMNYLQQQAGEGTEEHQDA
modifications: randomly labelled with NT-647 (NT-647-NHS labelling kit)
A word on the Kd: it is the free concentration of one partner at which half of the binding sites on the other are occupied at equilibrium, for simple one-to-one binding. A low value points to tighter binding. For B2, the equilibrium dissociation constant (Kd) in assay [2] was approximately 150 nM.
